# Data as given in publication PMC3059903 (EMBO Reports, 2011).
# Molecular target: laminin β1 LN–LEa1–4 fragment (mouse, UniProt P02469 22-509)
# Assay: SPR
# Chain of laminin β1 LN–LEa1–4 fragment (P02469 22-509): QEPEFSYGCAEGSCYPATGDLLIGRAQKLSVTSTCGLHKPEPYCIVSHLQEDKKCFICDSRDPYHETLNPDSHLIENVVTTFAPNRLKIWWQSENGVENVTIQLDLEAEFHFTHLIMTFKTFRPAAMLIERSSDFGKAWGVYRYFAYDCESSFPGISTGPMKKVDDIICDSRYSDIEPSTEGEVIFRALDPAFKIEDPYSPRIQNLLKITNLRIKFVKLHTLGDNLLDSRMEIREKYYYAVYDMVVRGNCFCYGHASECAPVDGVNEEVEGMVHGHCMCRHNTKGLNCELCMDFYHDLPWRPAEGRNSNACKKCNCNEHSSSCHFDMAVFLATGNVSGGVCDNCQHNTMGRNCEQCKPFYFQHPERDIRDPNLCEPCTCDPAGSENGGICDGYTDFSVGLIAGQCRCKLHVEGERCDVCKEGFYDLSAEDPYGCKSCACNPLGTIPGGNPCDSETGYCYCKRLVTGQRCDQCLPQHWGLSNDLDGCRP
binder,measurement,value
"laminin γ1 LN–LEa1–4 fragment (domain or fragment, mouse, UniProt P02468 34-492, looked up) AMDECADEGGRPQRCMPEFVNAAFNVTVVATNTCGTPPEEYCVQTGVTGVTKSCHLCDAGQQHLQHGAAFLTDYNNQADTTWWQSQTMLAGVQYPNSINLTLHLGKAFDITYVRLKFHTSRPESFAIYKRTREDGPWIPYQYYSGSCENTYSKANRGFIRTGGDEQQALCTDEFSDISPLTGGNVAFSTLEGRPSAYNFDNSPVLQEWVTATDIRVTLNRLNTFGDEVFNEPKVLKSYYYAISDFAVGGRCKCNGHASECVKNEFDKLMCNCKHNTYGVDCEKCLPFFNDRPWRRATAESASESLPCDCNGRSQECYFDPELYRSTGHGGHCTNCRDNTDGAKCERCRENFFRLGNTEACSPCHCSPVGSLSTQCDSYGRCSCKPGVMGDKCDRCQPGFHSLTEAGCRPCSCDLRGSTDECNVETGRCVCKDNVEGFNCERCKPGFFNLESSNPKGCTP",Kd,≥ 5 µM
